Laboratory results published in the RNAGym collection of RNA variant scans (doi:10.1073/pnas.2313332121).

B1: TPR t1 (parent)
chain: GACCAAUCUGCCCUCAGAGCUCGAGAACAUCUUCGGAUGCAGAGGAGGCAGGCUUCGGUGGCGCGAUAGCGCCAACGUCCUCAACCUCCAAUGCAUCCCACCACAUGAUGAUGCCUGAAGAGCCUUGGUUUUUUG

Variants of: B1
Test: polymerase ribozyme fitness, log enrichment relative to wild type (log ratio); higher = more active; in vitro selection for triplet polymerase activity
Method in brief: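 Each subunit of a heterodimeric triplet polymerase ribozyme was represented by a PCR-built, transcribed mutant library that underwent triplicate single-round in vitro selection with frozen incubation at −7 °C. Extended constructs were recovered by gel excision, streptavidin-bead capture and RT-PCR, and Illumina sequencing of input and output libraries kept genotypes with ≥10 input reads and ≥1 read per output. Fitness is the logarithm of genotype enrichment relative to wild-type enrichment, from inverse-variance-weighted replicate averages, with a logarithm base of 2.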

| Variant | polymerase ribozyme fitness (log ratio) |
| --- | --- |
| GACCAAUCUGCCCUCAGAGCUCGAGAACAUCUUCGGCUGCAGAGGAGACAGGCUUCGGUGGCGCGAUGGCGCCAACGUCCUCAACCUCCAAUGCAACCCACCACAUGAUGAUGCCUGAAGAGCCUUGGUUUUUUG [A37C G48A A68G U96A] | -3.13 |
| GACCAAUCUGCCCUCAGAGCUCGAGAACAUCUUCGGCUGCAGAGGAGGCAGGCUUCGGUGGCGCGAUAGCGCCAACGUCCUCAACCUCCAAUGCAUCCCACCACAUAAUGAUGCCUGAAGAGACUUGGUUUUUUG [A37C G107A C123A] | -5.8 |
| GACCAAUCUGCCCUCAGAGCUCGAGAACAUCUUCGGCUGCAGAGUAGGCAUGCUUCGGUGGCGCGAUAGCGCUAACGUCCUCAACCUCCAAUGCAUCCCACCACAUGAUGAUGCCUGAAGAGCGUUGGUUUUUUG [A37C G45U G51U C73U C124G] | -3.87 |
| GACCAAUCUGCCCUCAGAGCUCGAGAACAUCUUCGGCUGCAGAGGAGGCAGACUUCGGUGGCGCGAUAGCGCCAACGUCCUCCACCUCCAAUGCAUCCCACCACAUGAUGAUGCCCGAAGAGCCUUGGUUUUUUG [A37C G52A A83C U116C] | -2.17 |
| GACCAAUCUGCCCUCAGAGCUCGAGAACAUCUUCGGCUGCAGAGUAGGCAUGCUUCGGUGGCGCGAUAGCGCUAACGUCCUCAACCUCCAAUGCAUCCCACCACAUGAUGAUGCCUGAAGAGCCUUGGUUUUUUG [A37C G45U G51U C73U] | -4.53 |
| GACCAAUCUGCCCUCAGAGCUCGAGAACAUCUUCGGCUGCAGAGCAGGCAGGCUUCGGUGGCGCGAUAGCCCCAACGUCCUCAACCUCCAAUGCAUCCCACCACAUGAUGAUGCCUGAAGAGCCUUGGUGCUUUU [A37C G45C G71C U130G U131C G135U] | -3.26 |
| GACCAAUCUGCCCUCAGAGCUCGAGAACAUCUUCGGCUGCAGAGGAGGCAGGCUUCGGUGGCGCGAUAGCGCCAACGUCCUCAACCUCCAAUUCAUCCCACCACAUGAUGGUGCCUGAAGAGCCUUGGUUUUUUG [A37C G93U A111G] | -2.63 |
| GACCAAUCUGCCCUCAGAGCUCGAGAACAUCUUCGGCUGCAGAGGAGGCAGGCUUCGGUGGCGCGAUAGCGCCAACGUCCUCAACCUCCAAUGCAUCCCACCACAUGAUGAUCCCUGAAGAGCCUUGGUUUUUUG [A37C G113C] | -2.44 |
| GACCAAUCUGCCCUCAGAGCUCGAGAACAUCUUCGGCUGCAGAGGAGGCAGGCUUCGGUUGCGCGAUAGCGCCAACGUCCUCAACCUCCAAUGCAACCCACCACAUGAUCAUGCCUGAAGAGCCUUGGUUUUUAG [A37C G60U U96A G110C U134A] | -2.04 |
| GACCAAUCUGCCCUCAGAGCUCGAGAACAUCUUCGGCUGCAGAGGAGGCAGCCUUCGGUAGCGCGAUAGCGCCAACGUCCUCAACUUCCAAUGCAUCCCACCACAUGAUGAUGCCUGAAGAGCCUUGGUUUUUUG [A37C G52C G60A C86U] | -2.95 |
| GACCAAUCUGCCCUCAGAGCUCGAGAACAUCUUCGGCUGCAGAGGAGGCAGGCUUCGGUUGCGCGAUAGCGCCAACGUCCACAACCUCCAAUGCAUCCCACCACAUGAUGAUGCCUGAAGCGCCUUGGUUUUUUG [A37C G60U U81A A121C] | 0.858 |
| GACCAAUCUGCCCUCAGAGCUCGAGAACAUCUUCGGCUGCAGAGGAGGCAGGCUUCGGUGUCGCGAUAGCGCCAACGUCCUCAACCUCCAAUGCAUCCCACCACAUGAUGAUGCCUGAAGAGCCUUGGUUUUUUG [A37C G61U] | 0.0821 |
| GACCAAUCUGCCCUCAGAGCUCGAGAACAUCUUCGGCUGCAGAGGAGGCAGGCUUCGGUGGCUCGAUAGCGCCAACGUCCUCAACCUCCAAUGCAUCCCACCACAUGAUGAUGCCUGAAGAGCCUUGGUUUUUUG [A37C G63U] | -1.28 |
| GACCAAUCUGCCCUCAGAGCUCGAGAACAUCUUCGGCUGCAGAGCAGGCAGGCUUCGGUGGCGCGAUAGCGCCAACGUCCUCAACCUCCAAUGCAUCCCACCACAUGAUGGUGCCUGAAGAGCUUUGGUUUUUUG [A37C G45C A111G C124U] | -2.52 |
| GACCAAUCUGCCCUCAGAGCUCGAGAACAUCUUCGGCUGCAGAGGAGGCAGGCUUCGGUGGCGCGAUAGCGCCAACGUCCUCAACCUCCAAUGCAUCCCACCACAUGAUGAUGCCUGAAUAGCCUUGGUUUUUUG [A37C G120U] | 0.436 |
| GACCAAUCUGCCCUCAGAGCUCGAGAACAUCUUCGGCUGCAGAGGAGGCACGCUUCGGUGGCGCGAUAGCGCCAACGUCCUCAACCUCCAAUGCAUCCCACCACAUGAUGAUGCCUGAAGAGCCUUGGUUUUUUG [A37C G51C] | -4.02 |
| GACCAAUCUGCCCUCAGAGCUCGAGAACAUCUUCGGCUGCAGAGGAGGCAGGCUUCUGUGGCGCGAUGGCGCCAACGUCCUCAACCUCCAAUGCAUCCCACCACAUGAUGAUGCCUGAAGAGCCUUGGUUUUUUG [A37C G57U A68G] | -3.57 |
| GACCAAUCUGCCCUCAGAGCUCGAGAACAUCUUCGGCUGCAGAGGAGGCAGGCUUCGAUGGCGCGAUAGCGGCAACGCCCUCAACCUCCAAUGCAUCCCACCACAUGAUGAUCCCUGAAGAGCCUUGGUUUUUUG [A37C G58A C72G U78C G113C] | -3.84 |
| GACCAAUCUGCCCUCAGAGCUCGAGAACAUCUUCGGCUGCAGAGGAGGCAGGCUUCGGUGGCGCGAUAGCGCCAACGUCCUCAACCUCCAAUGCAUCCCACCACAUGAUCAUGCCUGAAGAGCAUUGGUUUUAUG [A37C G110C C124A U133A] | -3.68 |
| GACCAAUCUGCCCUCAGAGCUCGAGAACAUCUUCGGCUGCAGAGGAGGCAGGCUUCGGUGGCGCGAUAGCGCCAACGUCCUCAACCUCCAAUGCAUCCCACCACAUGAUGAUGCCUGAAGAGCCUUGCUUUUUUG [A37C G128C] | -3.32 |
| GACCAAUCUGCCCUCAGAGCUCGAGAACAUCUUCGGCUGCAGAGGAGGCAGGCUUCGGUGGCGCGAUAGCGCCAACGUCCUCAACCUCCAAUGCAUCCCACCACAUGAUGAUGCCUGAAAAACCUUGGUUUUUUG [A37C G120A G122A] | -1.07 |
